Test results as given in patent US20040014036.

Key:
[1] = tested on: Gal4 full length (Saccharomyces cerevisiae); assay: cell_activity; details: yeast lacZ reporter, 5x17mer; activation dependent on Gal4 sites stated for the peptide activators
[2] = tested on: Gal4(1-100)-LS201 (Saccharomyces cerevisiae); assay: cell_activity; details: yeast JPY9:RJR227 lacZ reporter; activation dependent on Gal4 sites (p75)

GAL4 consensus 17mer sites (five, reporter pRJR227)
activity (beta-gal units) [1]: 2350
activity (beta-gal units) [2]: 5290
